Publication PMC5913127 (Scientific Reports, 2018)

B1: BAN2401: anti-Aβ clinical candidate antibody, Ph2; mouse analog mAb158 (antibody, chains of the INN, looked up, V domains shown)
VH: EVQLVESGGGLVQPGGSLRLSCSASGFTFSSFGMHWVRQAPGKGLEWVAYISSGSSTIYYGDTVKGRFTISRDNAKNSLFLQMSSLRAEDTAVYYCAREGGYYYGRSYYTMDYWGQGTTVTVSS
VL: DVVMTQSPLSLPVTPGAPASISCRSSQSIVHSNGNTYLEWYLQKPGQSPKLLIYKVSNRFSGVPDRFSGSGSGTDFTLRISRVEAEDVGIYYCFQGSHVPPTFGPGTKLEIK
B2: gantenerumab: anti-Aβ clinical candidate antibody, Ph3 (antibody, chains of the INN, looked up, V domains shown)
VH: QVELVESGGGLVQPGGSLRLSCAASGFTFSSYAMSWVRQAPGKGLEWVSAINASGTRTYYADSVKGRFTISRDNSKNTLYLQMNSLRAEDTAVYYCARGKGNTHKPYGYVRYFDVWGQGTLVTVSS
VL: DIVLTQSPATLSLSPGERATLSCRASQSVSSSYLAWYQQKPGQAPRLLIYGASSRATGVPARFSGSGSGTDFTLTISSLEPEDFATYYCLQIYNMPITFGQGTKVEIK
B3: ^chgantenerumab: murine chimeric IgG2a/kappa analog with the variable domains of gantenerumab (antibody, chains of the INN, looked up, V domains shown)
VH: B2 VH
VL: B2 VL
modifications: murine chimeric IgG2a/kappa

Assays:
Aβ (Monomer, Aggregate) = conditions: A = aggregate, M = monomer; ref [9]–[19],[54] as given per antibody in column Ref. of Table 1; cited from earlier work
Aβ1-40 = assay: ELISA, binding of Fab fragments to biotinylated Aβ1-40 on streptavidin-coated plates; conditions: papain-generated Fab fragments, Aβ1-40-Lys-Biotin 1 μg/mL on streptavidin plates, average of two measurements
Experimental: For binding studies with Fab fragments, biotin-conjugated Aβ1-40 (Aβ1-40-Lys-Biotin; AnaSpec) was captured on streptavidin-coated plates (Thermo Fisher Scientific) by incubating 50 μL/well of the peptide at a concentration of 1 μg/mL in Assay Buffer (PBS containing 1% bovine serum albumin (BSA)) for 1 h at room temperature. Plates were washed with Wash Buffer (PBS containing 0.05% Tween-20) and blocked for 1 h at room temperature with Blocking Buffer (PBS containing 1% BSA). Antibodies or Fabs were serially diluted to the indicated concentrations in Assay Buffer, and 50 μL/well were added to plates in duplicate wells and incubated for 2 h at room temperature. Plates were washed three times with Wash Buffer, and bound antibodies or Fabs were detected using a horseradish peroxidase (HRP)-conjugated goat anti-mouse polyclonal secondary antibody (Jackson ImmunoResearch), followed by measurement of captured HRP by incubation with 1-Step TMB substrate (Thermo Fisher Scientific) following the manufacturer’s instructions.

tetrameric Aβ1-15 MAP = assay: ELISA with multi-antigen peptides, tetramer; format: binding; conditions: result in words
Experimental: (§1) Aβ peptide binding to anti-Aβ antibodies measured by isothermal titration calorimetry (ITC). Titration of mAb with Aβ1-28 peptide. […]
(§2) mAb:Aβ ratio. The solid line is the fit to a two-site binding model (2 Aβ peptides binding to 1 mAb). The average KD values were calculated from […]
(§3) ELISA of binding of anti-Aβ antibodies to bivalent and tetravalent multi-antigen peptides Biotinylated Aβ1-15 multivalent multi-antigen peptides (MAPs) based on branched lysine residues were custom synthesized and purified (LifeTein). […]
(§4) goat anti-mouse IgG Fcγ fragment-specific antibody (Jackson ImmunoResearch) in Coating Buffer. The coated plates were washed, blocked as described in Methods, and incubated with serial dilutions of dimeric or tetrameric biotinylated Aβ1-15 MAP in Blocking Buffer at the indicated concent rations in […]
(§5) (1 picture or pasted object on this page, not shown here)
(§6) Figure S5. Binding of anti-Aβ antibodies to dimeric and tetrameric Aβ as assessed by ELISA. (a) Design of biotin-conjugated Aβ1-15 multivalent multi-antigen peptides (MAPs). Binding of anti-Aβ antibodies to MAPs with Aβ1-15x2 dimer (b) and Aβ1-15x4 tetramer (c).

Aβ1-40 monomer = assay: ELISA-based competition assay: antibody binding to immobilized oligomeric Aβ1-42 competed by free monomeric Aβ1-40; conditions: immobilized oligomeric Aβ1-42 2.5 μg/mL, antibody 0.4 nM, 2 h room temperature, mean of duplicate wells
Experimental: Finally, we determined the binding of Fab fragments of the antibodies to Aβ1-40 (Fig. 1d).
To measure competition by soluble monomeric Aβ1-40, plates were coated with Aβ1-42 peptide at 2.5 μg/mL as above. In this case the oligomeric preparation of […] was used as the substrate to ensure sufficient signal with each test antibody. […] The plates were incubated at room temperature for 2 h, and bound antibody was detected with an HRP-conjugated goat anti-mouse polyclonal secondary antibody followed by measurement of HRP activity using 1-Step TMB substrate as described above. All data points are the mean of duplicate wells.

monomeric Aβ1-40-biotin = assay: SPR, Fab fragments binding to surface-captured Aβ1-40-biotin; conditions: SPR Biacore T200
Experimental: Figure 2 Surface plasmon resonance analysis of the binding of anti-Aβ antibody Fab fragments to Aβ1-40-biotin immobilized on a biotin-capture sensor chip surface. […] Fabs were injected over an Aβ1-40-biotin coated sensor chip for 2 min in (a) and 3 min in (b–d), where the rising response describes the approach to steady state binding and beyond which the response drops due to dissociation of the Fabs.
Binding kinetics and affinity measurements were performed with a Biacore T200 instrument (GE Healthcare). Aβ1-40-biotin was captured on a Biotin CAPture chip (GE Healthcare) at 3–7 pg/mm^2 from solutions at 10–20 ng/mL in Biacore buffer (10 mM HEPES, pH 7.2, 150 mM NaCl, 3.4 mM EDTA, 0.05% BSA, 0.005% surfactant P20) using reagents and protocols provided by the manufacturer. […] Antibody Fab fragments were injected for 2-3 min at 30 μL/min and a range of concentrations in Biacore buffer, as indicated in the Fig. 2 legend, and the binding response relative to a reference sensor with no Aβ1-40-biotin was recorded. Data were analyzed with Biacore T200 Evaluation Software v3.0 using a 1:1 binding model.

soluble Aβ1-28 = assay: SPR, soluble Aβ1-28 binding to surface-captured intact antibody
Experimental: Analysis of A binding kinetics using surface plasmon resonance (SPR)
To identify if surface immobilization through C -terminal biotin affects the bi nding of antibodies targeting the N terminus, a separate experiment was performed, in which the binding of soluble Aβ1-28 to surface-captured antibody was measured (Fig. S1). This truncated form of A β was used to minimize aggregation and contains the full epitope for all antibodies tested (Table 1). Intact antibody was captured at 100 -600 RU on a CM5 chip prepared with mouse antibody capture reagent (GE Healthcare), and the binding response of Aβ1-28 was measured relative to a reference sensor with no anti -Aβ antibody. In this assay
Surface plasmon resonance analysis of A1-28 binding to anti-A antibodies immobilized on a muIgG -capture sensor chip surface.
corresponding fits to a 1:1 binding model (red curves).
up to 30 µM. Kinetics and affinity constants determined are listed in (e).

fibrillar Aβ1-42 = assay: ELISA, binding of antibodies to immobilized Aβ1-42 fibrils; conditions: mIgG2a chimeric antibodies on fibrillar Aβ1-42 coated at 2.5 μg/mL, 2 h room temperature, average of two measurements, read-out: mAb binding aggregated Aβ1-42 (EC50)
Experimental: For binding of antibodies to immobilized Aβ, 96-well microplates (Nunc Maxisorp; Thermo Fisher Scientific) were coated with 50 μL/well of fibrillar Aβ1-42 peptide at 2.5 μg/mL overnight at 4 °C in Coating Buffer (15 mM Na2CO3, 35 mM NaHCO3, pH 9.6). […] Plates were washed with Wash Buffer (PBS containing 0.05% Tween-20) and blocked for 1 h at room temperature with Blocking Buffer (PBS containing 1% BSA). Antibodies or Fabs were serially diluted to the indicated concentrations in Assay Buffer, and 50 μL/well were added to plates in duplicate wells and incubated for 2 h at room temperature. Plates were washed three times with Wash Buffer, and bound antibodies or Fabs were detected using a horseradish peroxidase (HRP)-conjugated goat anti-mouse polyclonal secondary antibody (Jackson ImmunoResearch), followed by measurement of captured HRP by incubation with 1-Step TMB substrate (Thermo Fisher Scientific) following the manufacturer’s instructions.

dimeric Aβ1-15 MAP = assay: ELISA with multi-antigen peptides, dimer; format: binding; conditions: result in words
Experimental: as §1, §2, §3, §4, §5, §6

monomeric Aβ1-40 = conditions: read-out: mAb binding soluble Aβ1-40 (EC50); ELISA; monomeric biotinylated Aβ1-40 on captured antibody (5 μg/mL); average of two measurements
Experimental: For preparation of monomeric Aβ peptides, the Aβ HFIP film was dissolved in dimethyl sulfoxide (DMSO) at a concentration of 1 mg/mL then diluted to the target concentration in assay buffers and used immediately.
To measure binding of soluble monomeric Aβ1-40 peptide to immobilized antibodies, plates were coated with 50 μL/well of 5 μg/mL AffiniPure goat anti-mouse IgG Fcγ fragment-specific antibody (Jackson ImmunoResearch) in Coating Buffer. […] Plates were incubated at room temperature for 1 h, washed 3 times with Wash Buffer, incubated with serially diluted monomeric biotin-conjugated Aβ1-40 (Aβ1-40-Lys-Biotin; AnaSpec) in Blocking Buffer at the indicated concentrations, and washed 3 times with Wash Buffer. Binding was detected using HRP-conjugated streptavidin (Thermo Fisher Scientific) followed by incubation with 1-Step TMB substrate.

Aβ1-16 peptide = assay: Microscale thermophoresis (MST); format: binding; conditions: MST in solution; 5-TAMRA-labeled Aβ1-16; PBS, Triton X-100; average of three replicates
Aβ1-42 fibrils = assay: Negative-stain EM of fibrils with gold-conjugated antibodies; format: binding; conditions: fibril-associated gold particles per μm^2; 100 images; chaducanumab higher
Experimental: Aβ1-40 and Aβ1-42 peptides (AnaSpec) were dissolved in 5 M guanidine-HCl, 50 mM Tris-HCl, pH 8.0 at a concentration of 1 mg/mL. For growth of the Aβ1-40 fibrils, the solution was dialyzed (dialysis tubes, 1 kDa cutoff, GE Healthcare) against buffer (100 mM Na2HPO4, pH 8, 0.01% NaN3) for 4–6 h, then sonicated and agitated based on protocols described by Petkova and colleagues. For Aβ1-42 fibrils, the dialysis buffer was supplemented with 100 mM NaCl and 100 μM ZnCl2 to decrease fibril polymorphism, as previously described. All Aβ fibrils were grown at 24 °C for 3 days. […]
A 5-μL aliquot of Aβ1-40 or Aβ1-42 fibril sample (1 mg/mL) was adsorbed for 1 min on a glow-discharged carbon-coated copper grid. […] All quantifications were done using the Visiopharm image analysis software. Gold-conjugated anti-Aβ antibodies and Aβ1-40 or Aβ1-42 fibrils were detected with a customized algorithm. […] The data were subjected to a D’Agostino & Pearson normality test, and P-values were subsequently calculated using a Kruskal-Wallis one-way analysis of variance (ANOVA). […]
100 images were collected for each sample. […] (e) Labeling densities were calculated as the number of fibril-associated gold particles per µm2 for each image with mean ± SD for each group, as described in Fig 3. Quantification of the number of gold particles that […]

Aβ1-40 fibrils = assay: as above; format: binding; conditions: fibril-associated 10-nm gold particles (≤10 nm to fibril) per μm^2; 100 images; ^chaducanumab higher
Experimental: Figure 3 Negative-stain electron microscopy of Aβ1-40 fibrils incubated with gold-conjugated anti-Aβ antibodies. […] 100 images were collected for each sample. A representative image for each data set is shown. Scale bars are 100 nm. (e) Labeling densities were calculated as the number of fibril-associated gold particles (distance of ≤10 nm to fibril) per 1 μm^2 for each image, with mean ± SD for each group. The differences in the gold-labeled antibodies binding to Aβ fibrils were tested with a one-way ANOVA.
Aβ1-40 and Aβ1-42 peptides (AnaSpec) were dissolved in 5 M guanidine-HCl, 50 mM Tris-HCl, pH 8.0 at a concentration of 1 mg/mL. For growth of the Aβ1-40 fibrils, the solution was dialyzed (dialysis tubes, 1 kDa cutoff, GE Healthcare) against buffer (100 mM Na2HPO4, pH 8, 0.01% NaN3) for 4–6 h, then sonicated and agitated based on protocols described by Petkova and colleagues. […]
A 5-μL aliquot of Aβ1-40 or Aβ1-42 fibril sample (1 mg/mL) was adsorbed for 1 min on a glow-discharged carbon-coated copper grid. […] All quantifications were done using the Visiopharm image analysis software. Gold-conjugated anti-Aβ antibodies and Aβ1-40 or Aβ1-42 fibrils were detected with a customized algorithm. […] The data were subjected to a D’Agostino & Pearson normality test, and P-values were subsequently calculated using a Kruskal-Wallis one-way analysis of variance (ANOVA).

[1] = Fab binding to Aβ1-40-biotin captured at 3–7 pg/mm^2, 1:1 binding model

Molecule | Aβ selectivity (Monomer, Aggregate) (Aβ (Monomer, Aggregate)) | EC50 (Aβ1-40) | affinity for tetrameric Aβ1-15 MAP (tetrameric Aβ1-15 MAP) | IC50 (Aβ1-40 monomer) | Association rate, ka (monomeric Aβ1-40-biotin; [1]) | Dissociation rate, kd (monomeric Aβ1-40-biotin; [1]) | Kd (monomeric Aβ1-40-biotin; Fab binding to Aβ1-40-biotin, ^chaducanumab from steady state fit, read-out: Equilibrium affinity, KD) | decrease in affinity using soluble Aβ versus immobilized Aβ1-40 (soluble Aβ1-28; comparison with Table 2) | decrease in association rate using soluble Aβ (soluble Aβ1-28; comparison with immobilized Aβ1-40) | Kd (soluble Aβ1-28; intact antibody captured at 100-600 RU on CM5 mouse antibody capture chip, 1:1 binding model, read-out: affinity of soluble Aβ1-28 for antibody) | EC50 (fibrillar Aβ1-42) | affinity for dimeric Aβ1-15 MAP (dimeric Aβ1-15 MAP) | EC50 (monomeric Aβ1-40) | Kd (Aβ1-16 peptide) | labeling density of chaducanumab compared to the named antibody (Aβ1-42 fibrils) | labeling density of ^chaducanumab compared to the named antibody (Aβ1-40 fibrils)
B1 | A ≫ M |  |  |  |  |  |  |  |  |  |  |  |  |  |  | 
B2 |  | 5.9 nM |  |  |  |  |  |  |  |  |  |  |  |  |  | 
B3 |  | 5.9 nM | sub-nanomolar | 330 nM | 660000 M⁻¹ s⁻¹ | 0.015 s⁻¹ | 23 nM | > 50 fold | 20 fold | ~1000 nM | 0.3 nM | sub-nanomolar | 300 nM | 97 nM | 3.1 fold | 3.6 fold
